The text below walks through data of publication PMC10954734, “Structure of antiviral drug bulevirtide bound to hepatitis B and D virus receptor protein NTCP” (Nature Communications, 2024).

The experiment has as its target human Na+-taurocholate co-transporting polypeptide (NTCP), detergent-solubilized, 3C-cleaved (human) (UniProt Q14973).

Sequence of human Na+-taurocholate co-transporting polypeptide (NTCP), detergent-solubilized, 3C-cleaved (human) (Q14973 whole entry): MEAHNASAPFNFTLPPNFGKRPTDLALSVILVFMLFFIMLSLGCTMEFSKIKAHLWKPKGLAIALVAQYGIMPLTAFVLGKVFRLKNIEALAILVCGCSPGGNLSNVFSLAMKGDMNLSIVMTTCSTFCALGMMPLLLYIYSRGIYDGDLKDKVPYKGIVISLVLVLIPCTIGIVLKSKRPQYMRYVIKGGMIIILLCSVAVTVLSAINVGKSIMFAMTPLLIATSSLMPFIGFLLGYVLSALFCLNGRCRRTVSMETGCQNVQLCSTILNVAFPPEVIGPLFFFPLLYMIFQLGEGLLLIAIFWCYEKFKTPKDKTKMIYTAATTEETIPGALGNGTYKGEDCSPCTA

For bulevirtide (BLV) (peptide), the inhibition of 3H-taurocholate transport (1 uM TC, 8 min) into Flp-In T-Rex cells stably expressing NTCP at increasing concentrations of BLV; at high concentrations BLV fully abolished transport was determined as 195 nM.
